Values belong to the substance of their own block, whether it stands above or below them.
Tests used:
[1] = target: HSL3 ectodomain (wild type, residues 23–627); assay: ITC; conditions: ligand in syringe, receptor in cell; N = 1
SERK3 = assay: ITC; conditions: SERK3 in syringe; HSL3 + peptide in cell; N = 1
[2] = target: SERK1 ectodomain (residues 24–213) (UniProt Q94AG2); assay: ITC; conditions: SERK1 in syringe; HSL3 + peptide in cell; N = 1
[3] = target: HSL3 ectodomain (wild type, residues 23–627) (Arabidopsis); assay: ITC; CTNIP4 peptide (140–800 µM, syringe) injected into 15 µM HSL3 ectodomain or variant (cell); 25 °C; 20 mM sodium citrate, 150 mM NaCl, pH 5.0; N fitted to 1
CTNIP4(46–70)_(Cys–Cys) = assay: ITC; conditions: ligand in syringe, receptor in cell; N = 1

Chain of SERK1 ectodomain (residues 24–213) (Q94AG2 whole entry, looked up, the tested form may be a part): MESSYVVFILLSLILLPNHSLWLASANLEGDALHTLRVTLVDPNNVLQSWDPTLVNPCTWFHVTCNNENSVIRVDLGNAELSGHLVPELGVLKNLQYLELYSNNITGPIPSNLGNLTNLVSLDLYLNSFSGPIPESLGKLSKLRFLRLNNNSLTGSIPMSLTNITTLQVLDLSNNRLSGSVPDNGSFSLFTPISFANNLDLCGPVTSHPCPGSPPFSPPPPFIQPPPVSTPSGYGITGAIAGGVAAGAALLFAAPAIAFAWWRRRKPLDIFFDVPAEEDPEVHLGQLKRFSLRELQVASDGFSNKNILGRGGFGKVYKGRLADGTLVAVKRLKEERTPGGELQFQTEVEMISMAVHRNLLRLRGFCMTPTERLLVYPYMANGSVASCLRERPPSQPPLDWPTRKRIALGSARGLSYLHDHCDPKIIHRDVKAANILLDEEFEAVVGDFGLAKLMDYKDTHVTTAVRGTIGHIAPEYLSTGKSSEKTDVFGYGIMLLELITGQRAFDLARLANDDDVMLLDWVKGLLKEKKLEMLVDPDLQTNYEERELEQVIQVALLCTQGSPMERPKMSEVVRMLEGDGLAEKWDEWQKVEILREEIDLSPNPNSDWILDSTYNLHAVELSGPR

Substance: HSL3–CTNIP4 complex (HSL3 ectodomain pre-incubated with CTNIP4(46–70)_(Cys–Cys)) N60A
- other: ΔH (SERK3): 3.3 kcal/mol

Substance: HSL3–CTNIP4 complex (HSL3 ectodomain pre-incubated with CTNIP4(46–70)_(Cys–Cys)) N60F
- other: ΔH (SERK3): 13.2 kcal/mol

Substance: CTNIP4^C58A.C68A(46–70)_(linear) (peptide)
- fold impairment of binding against CTNIP4(46–70) (Cys–Cys) [3]: 200 fold

Substance: HSL3 ectodomain (wild type, residues 23–627) E171A
- other: ΔH (CTNIP4(46–70)_(Cys–Cys)): -21.2 kcal/mol

Substance: HSL3 ectodomain (wild type, residues 23–627) D288A
- other: ΔH (CTNIP4(46–70)_(Cys–Cys)): -3.4 kcal/mol

Substance: HSL3 + CTNIP4(46–63) C58A
- other: ΔH [2]: -3.7 kcal/mol

Continued, values first:

- Kd [1]: 3440 nM
- other: ΔH [1]: -17.5 kcal/mol
Substance: CTNIP4(46–70)_(Cys–Cys) S53A

- other: ΔH [2]: -7.1 kcal/mol
Substance: HSL3–CTNIP4 complex (HSL3 ectodomain pre-incubated with CTNIP4(46–70)_(Cys–Cys)) C58A; C68A

- other: ΔH (CTNIP4(46–70)_(Cys–Cys)): -17.6 kcal/mol
Substance: HSL3 ectodomain (wild type, residues 23–627) D241A

- Kd (CTNIP4(46–70)_(Cys–Cys)): 112 nM
- other: ΔH (CTNIP4(46–70)_(Cys–Cys)): -25.9 kcal/mol
Substance: HSL3 ectodomain (wild type, residues 23–627) R358A

Source: paper PMC13585564
